According to US20250382344A1, “Soluble GLP1/GIP/NPY2 Receptor Triple Agonists” (Boehringer Ingelheim International GmH, priority 2024, published 2025):
Positions count from the first letter of the chain named. Blank lines part the entries; values can stand above or below the binder they belong to. *1 amine or outer side, *2 acyl side, *3 side chain or, on linkers, in order; H or OH if unused. Where no end group is shown, it is not given here. Side-chain parts run from the residue outwards. [ ]: non-standard residue; d: D form. The star is where a group is joined. C18 diacid = O=C(O)CCCCCCCCCCCCCCCCC(=O)*; γGlu = O=C(O)[C@H](CCC(=O)[*:2])N[*:1]; εLys = N[C@@H](CCCCN[*:1])C(=O)[*:2]; Aib = CC(C)(N)C(=O)O

Key:
Test in all cases: cell-based or functional assay
human GLP-1 receptor = human GLP-1 receptor (human, UniProt P43220 24-463)
human GIP receptor = target: T1, human GIP receptor (human, UniProt P48546 22-466)
T1 sequence (looked up): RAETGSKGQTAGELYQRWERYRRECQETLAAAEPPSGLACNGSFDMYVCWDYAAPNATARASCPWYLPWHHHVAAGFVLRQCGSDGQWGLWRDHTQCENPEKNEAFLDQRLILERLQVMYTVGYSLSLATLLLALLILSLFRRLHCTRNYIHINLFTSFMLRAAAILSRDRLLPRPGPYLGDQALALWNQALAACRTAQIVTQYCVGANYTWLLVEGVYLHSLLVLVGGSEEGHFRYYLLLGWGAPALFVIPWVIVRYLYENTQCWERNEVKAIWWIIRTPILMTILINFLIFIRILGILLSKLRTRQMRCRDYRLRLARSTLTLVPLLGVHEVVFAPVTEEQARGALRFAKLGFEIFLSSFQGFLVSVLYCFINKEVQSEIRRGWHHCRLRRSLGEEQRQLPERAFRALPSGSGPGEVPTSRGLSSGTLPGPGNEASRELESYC

[1] = target: T2, human neuropeptide Y2 receptor (human, UniProt P49146 1-381)
T2 sequence (looked up): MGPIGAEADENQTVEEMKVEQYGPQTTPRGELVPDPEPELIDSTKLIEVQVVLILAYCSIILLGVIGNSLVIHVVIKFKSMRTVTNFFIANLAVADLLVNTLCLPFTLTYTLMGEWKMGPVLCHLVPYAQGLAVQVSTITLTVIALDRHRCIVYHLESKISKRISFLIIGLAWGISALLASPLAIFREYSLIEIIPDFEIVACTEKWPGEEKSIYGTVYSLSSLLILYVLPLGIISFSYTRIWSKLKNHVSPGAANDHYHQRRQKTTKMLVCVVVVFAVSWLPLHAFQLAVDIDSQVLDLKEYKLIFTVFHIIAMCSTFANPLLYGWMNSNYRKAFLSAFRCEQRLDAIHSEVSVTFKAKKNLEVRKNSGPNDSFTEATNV

EC50, CreLuc luciferase reporter assay, hGLP1R 0.5% hP (human GLP-1 receptor): 1 nM
B1: Compound 174 (peptide)
peptide: Y[Aib]EGTFTSDYSI[Aib]LEKQAQ[Aib]AFVRHLINK([γGlu-εLys-γGlu-γGlu-γGlu-γGlu-γGlu-C18 diacid])[Aib]TRQRY-NH2
modifications: also: TFA salt

EC50, CreLuc luciferase reporter assay, hGIPR 0.5% hP (human GIP receptor): 0.4 nM | EC50, CreLuc luciferase reporter assay, hNPY2R 0.5% hP [1]: 9.9 nM | EC50, CreLuc luciferase reporter assay, hNPY2R 100% hP [1]: 95.3 nM
B2: Compound 171 (peptide)
peptide: YXEGTFTSDYSIXLERQAQXAFVRHLINKXTRQRY
modifications: Aib at positions 2, 13, 20 and 30; Lys 29 epsilon-amino group carries C20DA-gGlu-gGlu-gGlu-gGlu-gGlu-gGlu-eLys; C-terminal amide

EC50, CreLuc luciferase reporter assay, hGIPR 0.5% hP (human GIP receptor): 1.7 nM | EC50, CreLuc luciferase reporter assay, hGIPR 100% hP (human GIP receptor): 19.8 nM | EC50, CreLuc luciferase reporter assay, hNPY2R 0.5% hP [1]: 52.7 nM | EC50, CreLuc luciferase reporter assay, hNPY2R 100% hP [1]: 136 nM
B3: Compound 172 (peptide)
peptide: B2 peptide with R16K, X30W
modifications: Aib at positions 2, 13 and 20; Lys 29 epsilon-amino group carries C18DA-gGlu-gGlu-gGlu-gGlu-gGlu-gGlu-eLys; C-terminal amide

EC50, CreLuc luciferase reporter assay, hGIPR 0.5% hP (human GIP receptor): 0.7 nM | EC50, CreLuc luciferase reporter assay, hGIPR 100% hP (human GIP receptor): 20.1 nM | EC50, CreLuc luciferase reporter assay, hNPY2R 0.5% hP [1]: 7.3 nM | EC50, CreLuc luciferase reporter assay, hNPY2R 100% hP [1]: 55.5 nM | EC50, CreLuc luciferase reporter assay, hGLP1R 0.5% hP (human GLP-1 receptor): 0.2 nM
B4: Compound 173 (peptide)
peptide: B2 peptide with E15D, R16K, I27L
modifications: Aib at positions 2, 13, 20 and 30; Lys 29 epsilon-amino group carries C18DA-gGlu-gGlu-gGlu-gGlu-gGlu-gGlu-eLys; C-terminal amide

EC50, CreLuc luciferase reporter assay, hNPY2R 100% hP [1]: 457 nM
B5: Compound 176 (peptide)
peptide: B2 peptide with R16K
modifications: Aib at positions 2, 13, 20 and 30; Lys 29 epsilon-amino group carries C20DA-gGlu-gGlu-gGlu-gGlu-gGlu; C-terminal amide
